Assay results as given in US7642400B2, “Protein kinase C iota” (Mayo Foundation for Medical Education and Research, priority 2004, dated 2010).

T1: interaction of PKCι polypeptides with PAR6 polypeptides (Homo sapiens, UniProt P41743)
T1 construct: amino acids 1-113 or a full-length PKCι polypeptide; 6xHis; made in house
T1 sequence (P41743 10-122): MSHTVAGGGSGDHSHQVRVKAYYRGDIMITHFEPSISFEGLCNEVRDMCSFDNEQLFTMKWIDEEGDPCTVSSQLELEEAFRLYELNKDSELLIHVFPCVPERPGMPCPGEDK


Experiments:
[1] = target: T1, interaction of PKCι polypeptides with PAR6 polypeptides; test: Primary screen: FRET assay of PKCι113-YFP-N1 (PYN) and PAR6125-CFP-C1; details: FIG. 18; less binding as concentration increased
Description: A primary screen was performed as follows to identify test compound having the potential to inhibit the interaction of PKCι polypeptides with PAR6 polypeptides. Bacterially expressed PKCι113-YFP-N1 (PYN) was isolated from the soluble fraction of bacterial lysates by affinity purification according to the manufacturer's protocol (B-PER 6×His Purification Kit; Pierce). The purified polypeptide was dialyzed against Tris buffer (50 mM Tris, pH 8.0; 135 mM NaCl; 10% glycerol; 0.002% EDTA) containing 2 M urea. PAR6125-CFP-C1 recombinant polypeptide was isolated from the inclusion body pellets of bacterial lysates using the B-PER reagent (Pierce) according to the manufacturer's protocol. […] Yields were measured by fluorescence in a SpectraMax Gemini microplate reader (Molecular Devices).
To perform the assay, PYN was diluted to 4000 relative fluorescent units/50 μl in Tris buffer plus 1 M urea, and PAR6125-CFP-C1 was diluted to 400 relative fluorescent units/50 μl Tris buffer plus 1 M urea. […] Fluorescence was measured in a SpectraMax Gemini plate reader. Cyan fluorescence was measured at excitation 395 nm, emission 475 nm, and cutoff of 455 nm. Yellow fluorescence was measured at excitation 395 nm, emission 529, and cutoff of 515=n. […]

[2] = target: T1, interaction of PKCι polypeptides with PAR6 polypeptides; test: Secondary screen: PYN bound to plate-immobilised biotin-tagged PAR6; assay type: binding; details: increasing amounts, e.g. 0, 0.1, 1, 10, 100, and 100 μM
Description: Multiple test compounds that were classified as hits in the primary screen as well as additional related compounds were evaluated in a secondary screen designed as follows. Briefly, a 96-well microtiter plate coated with streptavidin (Nunc #436014) was incubated for 2-4 hours at room temperature with 100 μl of a 20-30 μg/ml solution of biotin-tagged PAR6 (whole polypeptide) in phosphate-buffered saline containing Tween-20 (PBST). Plates were washed twice with PBST, then once with incubation buffer (50 mM Tris, pH 8.0; 135 mM NaCl; 10% glycerol; 0.002% EDTA). Incubation buffer (50 μl) was added to each well. The compounds to be tested were added (10 μl) followed by PYN (50 μl) diluted in incubation buffer to an approximate concentration of 4000-5000 relative fluorescent units per 50 μl. Plates were incubated overnight at 4° C. Plates were washed twice with incubation buffer, after which 50 μl incubation buffer was added to retain moisture in the wells. The amount of PYN bound on the plates was determined by measuring yellow fluorescence (532/526) in a Typhoon imager. Fluorescence was quantitated by Softmax Pro software.
A dose-response analysis was performed using the secondary screening assay and increasing amounts (e.g., 0, 0.1, 1, 10, 100, and […]) of gossypol, hexestrol, thimerosal, ebselen, ATG, ATM, ellagic acid, cisplatin, apomorphine, or phenylmercuric acetate.

[3] = tested on: Rac1 activity in A549 cells; test: Rac1 activity assay (affinity isolation of GTP-bound Rac1) in A549 cells; assay type: cell-based, human; details: A549 cells treated with PSI or stably expressing PKCι(1-113); FIG. 12E
Description: Rac 1 Activity Assays: Rac1 activity in A549 and H1299 cell transfectants was assessed by affinity isolation of GTP-bound Rac1 using binding domains of PAK as described previously (Sander et al., J. Cell Biol., 143(5):1385-98 (1998)). Briefly, cells were lysed in lysis buffer (50 mM Tris-HCl pH 7.5, 150 mM NaCl, 20 mM MgCl2, 5 mM EGTA, 10% glycerol, 1% Triton X-100, 1% NP-40, 25 mM NaF, 1 mM phenylmethylsulfonyl fluoride, 1 mM sodium orthovanadate, 10 μg/ml leupeptin, 10 μg/ml aprotinin) at 4° C. for 5 min. Cellular debris was removed by centrifugation at 20,000×g for 5 min, and supernatants were transferred to new tubes containing 20 μl of GST-p21-binding domain of PAK1 (PAK1-PBD) coupled to agarose beads (Upstate). An aliquot of each supernatant was reserved to determine total Rac1 and actin expression by immunoblot analysis. Following a 30-minute incubation at 4° C., the agarose beads were collected by centrifugation and washed three times in wash buffer (50 mM Tris-HCl pH 7.5, 150 mM NaCl, 20 mM MgCl2, 5 mM EGTA, 10% glycerol, 1% Triton X-100, 1% NP-40, 25 mM NaF, 1 mM phenylmethylsulfonyl fluoride, 1 mM sodium orthovanadate, 10 μg/ml leupeptin, 10 μg/ml aprotinin). Bound polypeptides were solubilized by the addition of 30 μl of SDS sample buffer, resolved by SDS-PAGE, and subjected to immunoblot analysis for Rac1. An equivalent aliquot of the total cell lysate was subjected to immunoblot analysis to determine total Rac1 expression.
Rac 1 Activity Assays: A549 cells were incubated with the indicated concentration of ATG for one hour prior to analysis. Rac1 activity in A549 cells was assessed by affinity isolation of GTP-bound Rac1 using binding domains of PAK as described elsewhere (Sander et al., J. Cell Biol., 143:1385-98 (1998)). Briefly, cells were lysed in lysis buffer (50 mM Tris-HCl pH 7.5, 150 mM NaCl, 20 mM MgCl2, 5 mM EGTA, 10% glycerol, 1% Triton X-100, 1% NP-40, 25 mM NaF, 1 mM phenylmethylsulfonyl fluoride, 1 mM sodium orthovanadate, 10 μg/ml leupeptin, and 10 μg/ml aprotinin) at 4° C. for 5 min. […]

[4] = tested on: A549 cells; test: Soft agar growth assay (anchorage-independent growth) of A549 cells; assay type: cell-based, human; details: A549 cells expressing PKCι(1-113) versus A549/LZRS; FIG. 12G
Description: (§1) Anchorage-independent growth was assayed by the ability of cells to form colonies in soft agar. The bottom agar consisted of growth medium containing 10% FBS and 0.75% agarose in 60-mm tissue culture dishes. Nine hundred cells were resuspended in growth medium containing 10% FBS and 0.75% agarose, and plated on top of the bottom agar. The cells were incubated at 37° C. in 5% CO2. Cell colonies were visualized and quantified under a dissecting microscope (Olympus) after 4-6 weeks in culture.
as §1, with “Soft Agar Growth Assays: Anchorage-independent growth” for “Anchorage-independent growth”, “and 0.75% agarose and plated” for “and 0.75% agarose, and plated”, “bottom agar. ATG was added at the indicated concentration to both bottom and top agar solutions. The cells” for “bottom agar. The cells”

[5] = tested on: A549 cells; test: Cell invasion through Matrigel-coated chambers, A549 transfectants; assay type: cell-based, human; details: A549 cells expressing PKCι(1-113) versus A549/LZRS; FIG. 12F
Description: Cell Invasion and Soft Agar Growth Assays: A549 and H1299 transfectants were assayed for cell invasion using Matrigel-coated Transwell cell culture chambers (6,5-mm diameter, 8-μm pore size; BD Biosciences). A549 and H1299 cell transfectants in logarithmic growth phase were harvested with trypsin, the trypsin neutralized with serum-containing medium, and the cells pelleted and resuspended in serum-free growth medium. 2.5×10^4 cells were placed into the upper chamber of the Transwell insert, and growth medium containing 10% FBS was added to the lower chamber. After 22 hours at 37° C. in 5% CO2, non-invasive cells in the upper chambers were removed and invasive cells were fixed in 100% methanol and stained with 0.5% crystal violet (Sigma) in 2% ethanol. Cells which had invaded through the Matrigel-coated filter were counted on a microscope (X40, Olympus) using a calibrated ocular grid.

[6] = tested on: RIE/Ras cells; test: Soft agar colony formation of RIE/Ras cells; assay type: cell-based, rat; details: RIE/Ras/PKCι(1-113) versus RIE/Ras cells; FIG. 9
Text: To assess anchorage-independent growth, RIE cell transfectants were suspended in DMEM supplemented with 10% FBS, 1.5% agarose, and a 1% insulin, transferrin and selenium solution (Sigma-Aldrich), and plated (300 cells/60 mm dish) on a layer of 1.5% agar containing the same medium. Cell colonies were fixed with 20% methanol and stained with Giemsa after 7-14 days in culture and quantified under a dissecting microscope.

| dose-response in the FRET assay: relative binding of PKCι and PAR6 polypeptides [1] | dose-response analysis using the secondary screening assay [2] | Molecule | Rac1 activity [3] | anchorage-independent growth in soft agar [4] | A549 cell invasion [5] | soft agar colony formation [6] |
| --- | --- | --- | --- | --- | --- | --- |
| dose-dependent effect | dose-dependent response was detected | O=C(O)CC([S-])C(=O)O.[Au+] (stereo not drawn) [ATM, aurothiomaleate] | – | – | – | – |
| – | – | PKCι(1-113): first 113 amino acids of PKCι, encompassing the PB1 domain, expressed in cells from a plasmid (protein) MPTQRDSSTMSHTVAGGGSGDHSHQVRVKAYYRGDIMITHFEPSISFEGLCNEVRDMCSFDNEQLFTMKWIDEEGDPCTVSSQLELEEAFRLYELNKDSELLIHVFPCVPERP | inhibits Rac1 activity | inhibits | inhibits | significantly less soft agar colony formation |
